The supplement of paper PMC5998384

Key:
HeLa Kyoto [1] = assay: melting temperature (median over replicates), in situ; higher = more thermally stable
HeLa Kyoto [2] = assay: thermal stability score vs G1/S (z-score of summed log2 fold changes over temperatures); higher = more thermally stable than in G1/S
HeLa Kyoto [3] = assay: solubility in G1/S (NP-40 vs SDS abundance) (log2 ratio); higher = more soluble; settings: cell cycle stage: G1/S
HeLa Kyoto [4] = assay: solubility change mitosis vs G1/S (difference of NP-40 vs SDS log2 ratios) (log2 ratio difference); higher = more soluble in mitosis
[5] = cell cycle stage: early G1 (4.5 h after nocodazole release)
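Wherever melting temperature (median over replicates), in situ is given: HeLa Kyoto cells synchronized by double thymidine or nocodazole block, proteins quantified by TMT10plex mass spectrometry, three independent biological replicates.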
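Wherever solubility change mitosis vs G1/S (difference of NP-40 vs SDS log2 ratios) is given: synchronized HeLa Kyoto cells (double thymidine block for G1/S, nocodazole release for mitosis), protein amounts in NP-40 versus SDS lysates quantified by mass spectrometry, three biological replicates.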
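Wherever solubility in G1/S (NP-40 vs SDS abundance) is given: HeLa Kyoto cells arrested at G1/S by double thymidine block, proteins quantified by TMT10plex mass spectrometry in mild NP-40 versus SDS extracts, three biological replicates.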
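Wherever thermal stability score vs G1/S (z-score of summed log2 fold changes over temperatures) is given: synchronized HeLa Kyoto cells, proteins quantified by TMT10plex mass spectrometry, three biological replicates, mitosis taken 0.5 h after nocodazole release, G1/S directly after double thymidine block.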

Row | Sequence | melting temperature (HeLa Kyoto [1]; cell cycle stage: G1/S) [°C] | melting temperature (HeLa Kyoto [1]; cell cycle stage: mitosis) [°C] | thermal stability score (HeLa Kyoto [2]; [5]) | thermal stability score (HeLa Kyoto [2]; cell cycle stage: mitosis) | solubility in G1/S (log2) (HeLa Kyoto [3]) | solubility change mitosis (log2) (HeLa Kyoto [4])
1 | MTTSHMNGHVTEESDSEVKNVDLASPEEHQKHREMAVDCPGDLGTRMMPIRRSAQLERIRQQQEDMRRRREEEGKKQELDLNSSMRLKKLAQIPPKTGIDNPMFDTEEGIVLESPHYAVKILEIEDLFSSLKHIQHTLVDSQSQEDISLLLQLVQNKDFQNAFKIHNAITVHMNKASPPFPLISNAQDLAQEVQTVLKPVHHKEGQELTALLNTPHIQALLLAHDKVAEQEMQLEPITDERVYESIGQYGGETVKIVRIEKARDIPLGATVRNEMDSVIISRIVKGGAAEKSGLLHEGDEVLEINGIEIRGKDVNEVFDLLSDMHGTLTFVLIPSQQIKPPPAKETVIHVKAHFDYDPSDDPYVPCRELGLSFQKGDILHVISQEDPNWWQAYREGDEDNQPLAGLVPGKSFQQQREAMKQTIEEDKEPEKSGKLWCAKKNKKKRKKVLYNANKNDDYDNEEILTYEEMSLYHQPANRKRPIILIGPQNCGQNELRQRLMNKEKDRFASAVPHTTRSRRDQEVAGRDYHFVSRQAFEADIAAGKFIEHGEFEKNLYGTSIDSVRQVINSGKICLLSLRTQSLKTLRNSDLKPYIIFIAPPSQERLRALLAKEGKNPKPEELREIIEKTREMEQNNGHYFDTAIVNSDLDKAYQELLRLINKLDTEPQWVPSTWLR [MPP5] | 48 | 50.7 | 0.62 | 2.56 | 0.0594 | 0.00906
2 | MTTSTLQKAIDLVTKATEEDKAKNYEEALRLYQHAVEYFLHAIKYEAHSDKAKESIRAKCVQYLDRAEKLKDYLRSKEKHGKKPVKENQSEGKGSDSDSEGDNPEKKKLQEQLMGAVVMEKPNIRWNDVAGLEGAKEALKEAVILPIKFPHLFTGKRTPWRGILLFGPPGTGKSYLAKAVATEANNSTFFSVSSSDLMSKWLGESEKLVKNLFELARQHKPSIIFIDEVDSLCGSRNENESEAARRIKTEFLVQMQGVGNNNDGTLVLGATNIPWVLDSAIRRRFEKRIYIPLPEEAARAQMFRLHLGSTPHNLTDANIHELARKTEGYSGADISIIVRDSLMQPVRKVQSATHFKKVCGPSRTNPSMMIDDLLTPCSPGDPGAMEMTWMDVPGDKLLEPVVCMSDMLRSLATTRPTVNADDLLKVKKFSEDFGQES [VPS4A] | 48.6 | 49.7 | 1.11 | 1.47 | 0.393 | -0.128
3 | MTVSGPGTPEPRPATPGASSVEQLRKEGNELFKCGDYGGALAAYTQALGLDATPQDQAVLHRNRAACHLKLEDYDKAETEASKAIEKDGGDVKALYRRSQALEKLGRLDQAVLDLQRCVSLEPKNKVFQEALRNIGGQIQEKVRYMSSTDAKVEQMFQILLDPEEKGTEKKQKASQNLVVLAREDAGAEKIFRSNGVQLLQRLLDMGETDLMLAALRTLVGICSEHQSRTVATLSILGTRRVVSILGVESQAVSLAACHLLQVMFDALKEGVKKGFRGKEGAIIVDPARELKVLISNLLDLLTEVGVSGQGRDNALTLLIKAVPRKSLKDPNNSLTLWVIDQGLKKILEVGGSLQDPPGELAVTANSRMSASILLSKLFDDLKCDAERENFHRLCENYIKSWFEGQGLAGKLRAIQTVSCLLQGPCDAGNRALELSGVMESVIALCASEQEEEQLVAVEALIHAAGKAKRASFITANGVSLLKDLYKCSEKDSIRIRALVGLCKLGSAGGTDFSMKQFAEGSTLKLAKQCRKWLCNDQIDAGTRRWAVEGLAYLTFDADVKEEFVEDAAALKALFQLSRLEERSVLFAVASALVNCTNSYDYEEPDPKMVELAKYAKQHVPEQHPKDKPSFVRARVKKLLAAGVVSAMVCMVKTESPVLTSSCRELLSRVFLALVEEVEDRGTVVAQGGGRALIPLALEGTDVGQTKAAQALAKLTITSNPEMTFPGERIYEVVRPLVSLLHLNCSGLQNFEALMALTNLAGISERLRQKILKEKAVPMIEGYMFEEHEMIRRAATECMCNLAMSKEVQDLFEAQGNDRLKLLVLYSGEDDELLQRAAAGGLAMLTSMRPTLCSRIPQVTTHWLEILQALLLSSNQELQHRGAVVVLNMVEASREIASTLMESEMMEILSVLAKGDHSPVTRAAAACLDKAVEYGLIQPNQDGE [UNC45A] | 48.6 | 48.8 | 0.271 | 1.37 | 0.2 | -0.111
4 | MVAVLGGRGVLRLRLLLSALKPGIHVPRAGPAAAFGTSVTSAKVAVNGVQLHYQQTGEGDHAVLLLPGMLGSGETDFGPQLKNLNKKLFTVVAWDPRGYGHSRPPDRDFPADFFERDAKDAVDLMKALKFKKVSLLGWSDGGITALIAAAKYPSYIHKMVIWGANAYVTDEDSMIYEGIRDVSKWSERTRKPLEALYGYDYFARTCEKWVDGIRQFKHLPDGNICRHLLPRVQCPALIVHGEKDPLVPRFHADFIHKHVKGSRLHLMPEGKHNLHLRFADEFNKLAEDFLQ [BPHL] | 52.7 | 52.4 | 0.683 | 0.206 | 0.0569 | -0.00389
5 | MVCGGFACSKNCLCALNLLYTLVSLLLIGIAAWGIGFGLISSLRVVGVVIAVGIFLFLIALVGLIGAVKHHQVLLFFYMIILLLVFIVQFSVSCACLALNQEQQGQLLEVGWNNTASARNDIQRNLNCCGFRSVNPNDTCLASCVKSDHSCSPCAPIIGEYAGEVLRFVGGIGLFFSFTEILGVWLTYRYRNQKDPRANPSAFL [TSPAN13] | 57.7 | 57.6 | -0.55 | -1.07 | 0.0697 | -0.273
6 | MVDREQLVQKARLAEQAERYDDMAAAMKNVTELNEPLSNEERNLLSVAYKNVVGARRSSWRVISSIEQKTSADGNEKKIEMVRAYREKIEKELEAVCQDVLSLLDNYLIKNCSETQYESKVFYLKMKGDYYRYLAEVATGEKRATVVESSEKAYSEAHEISKEHMQPTHPIRLGLALNYSVFYYEIQNAPEQACHLAKTAFDDAIAELDTLNEDSYKDSTLIMQLLRDNLTLWTSDQQDDDGGEGNN [YWHAG] | 55.1 | 54.8 | -2.23 | -4.24 | 0.35 | 0.206
7 | MVEEENIRVVRCGGSELNFRRAVFSADSKYIFCVSGDFVKVYSTVTEECVHILHGHRNLVTGIQLNPNNHLQLYSCSLDGTIKLWDYIDGILIKTFIVGCKLHALFTLAQAEDSVFVIVNKEKPDIFQLVSVKLPKSSSQEVEAKELSFVLDYINQSPKCIAFGNEGVYVAAVREFYLSVYFFKKKTTSRFTLSSSRNKKHAKNNFTCVACHPTEDCIASGHMDGKIRLWRNFYDDKKYTYTCLHWHHDMVMDLAFSVTGTSLLSGGRESVLVEWRDATEKNKEFLPRLGATIEHISVSPAGDLFCTSHSDNKIIIIHRNLEASAVIQGLVKDRSIFTGLMIDPRTKALVLNGKPGHLQFYSLQSDKQLYNLDIIQQEYINDYGLIQIELTKAAFGCFGNWLATVEQRQEKETELELQMKLWMYNKKTQGFILNTKINMPHEDCITALCFCNAEKSEQPTLVTASKDGYFKVWILTDDSDIYKKAVGWTCDFVGSYHKYQATNCCFSEDGSLLAVSFEEIVTIWDSVTWELKCTFCQRAGKIRHLCFGRLTCSKYLLGATENGILCCWNLLSCALEWNAKLNVRVMEPDPNSENIAAISQSSVGSDLFVFKPSEPRPLYIQKGISREKVQWGVFVPRDVPESFTSEAYQWLNRSQFYFLTKSQSLLTFSTKSPEEKLTPTSKQLLAEESLPTTPFYFILGKHRQQQDEKLNETLENELVQLPLTENIPAISELLHTPAHVLPSAAFLCSMFVNSLLLSKETKSAKEIPEDVDMEEEKESEDSDEENDFTEKVQDTSNTGLGEDIIHQLSKSEEKELRKFRKIDYSWIAAL [WDR75] | 50 | 50.1 | 1.76 | 0.92 | -1.21 | 0.372
8 | MVHFCGLLTLHREPVPLKSISVSVNIYEFVAGVSATLNYENEEKVPLEAFFVFPMDEDSAVYSFEALVDGKKIVAELQDKMKARTNYEKAISQGHQAFLLEGDSSSRDVFSCNVGNLQPGSKAAVTLKYVQELPLEADGALRFVLPAVLNPRYQFSGSSKDSCLNVKTPIVPVEDLPYTLSMVATIDSQHGIEKVQSNCPLSPTEYLGEDKTSAQVSLAAGHKFDRDVELLIYYNEVHTPSVVLEMGMPNMKPGHLMGDPSAMVSFYPNIPEDQPSNTCGEFIFLMDRSGSMQSPMSSQDTSQLRIQAAKETLILLLKSLPIGCYFNIYGFGSSYEACFPESVKYTQQTMEEALGRVKLMQADLGGTEILAPLQNIYRGPSIPGHPLQLFVFTDGEVTDTFSVIKEVRINRQKHRCFSFGIGEGTSTSLIKGIARASGGTSEFITGKDRMQSKALRTLKRSLQPVVEDVSLSWHLPPGLSAKMLSPEQTVIFRGQRLISYAQLTGRMPAAETTGEVCLKYTLQGKTFEDKVTFPLQPKPDVNLTIHRLAAKSLLQTKDMGLRETPASDKKDALNLSLESGVISSFTAFIAINKELNKPVQGPLAHRDVPRPILLGASAPLKIKCQSGFRKALHSDRPPSASQPRGELMCYKAKTFQMDDYSLCGLISHKDQHSPGFGENHLVQLIYHQNANGSWDLNEDLAKILGMSLEEIMAAQPAELVDSSGWATILAVIWLHSNGKDLKCEWELLERKAVAWMRAHAGSTMPSVVKAAITFLKSSVDPAIFAF [VWA5A] | 52.3 | 52.2 | -0.428 | -0.133 | 0.137 | -0.132
9 | MVKLDIHTLAHHLKQERLYVNSEKQLIQRLNADVLKTAEKLYRTAWIAKQQRINLDRLIITSAEASPAECCQHAKILEDTQFVDGYKQLGFQETAYGEFLSRLRENPRLIASSLVAGEKLNQENTQSVIYTVFTSLYGNCIMQEDESYLLQVLRYLIEFELKESDNPRRLLRRGTCAFSILFKLFSEGLFSAKLFLTATLHEPIMQLLVEDEDHLETDPNKLIERFSPSQQEKLFGEKGSDRFRQKVQEMVESNEAKLVALVNKFIGYLKQNTYCFPHSLRWIVSQMYKTLSCVDRLEVGEVRAMCTDLLLACFICPAVVNPEQYGIISDAPINEVARFNLMQVGRLLQQLAMTGSEEGDPRTKSSLGKFDKSCVAAFLDVVIGGRAVETPPLSSVNLLEGLSRTVVYITYSQLITLVNFMKSVMSGDQLREDRMALDNLLANLPPAKPGKSSSLEMTPYNTPQLSPATTPANKKNRLPIATRSRSRTNMLMDLHMDHEGSSQETIQEVQPEEVLVISLGTGPQLTPGMMSENEVLNMQLSDGGQGDVPVDENKLHGKPDKTLRFSLCSDNLEGISEGPSNRSNSVSSLDLEGESVSELGAGPSGSNGVEALQLLEHEQATTQDNLDDKLRKFEIRDMMGLTDDRDISETVSETWSTDVLGSDFDPNIDEDRLQEIAGAAAENMLGSLLCLPGSGSVLLDPCTGSTISETTSEAWSVEVLPSDSEAPDLKQEERLQELESCSGLGSTSDDTDVREVSSRPSTPGLSVVSGISATSEDIPNKIEDLRSECSSDFGGKDSVTSPDMDEITHGAHQLTSPPSQSESLLAMFDPLSSHEGASAVVRPKVHYARPSHPPPDPPILEGAVGGNEARLPNFGSHVLTPAEMEAFKQRHSYPERLVRSRSSDIVSSVRRPMSDPSWNRRPGNEERELPPAAAIGATSLVAAPHSSSSSPSKDSSRGETEERKDSDDEKSDRNRPWWRKRFVSAMPKAPIPFRKKEKQEKDKDDLGPDRFSTLTDDPSPRLSAQAQVAEDILDKYRNAIKRTSPSDGAMANYESTGDNHDRDLSSKLLYHSDKEVMGDGESAHDSPRDEALQNISADDLPDSASQAAHPQDSAFSYRDAKKKLRLALCSADSVAFPVLTHSTRNGLPDHTDPEDNEIVCFLKVQIAEAINLQDKNLMAQLQETMRCVCRFDNRTCRKLLASIAEDYRKRAPYIAYLTRCRQGLQTTQAHLERLLQRVLRDKEVANRYFTTVCVRLLLESKEKKIREFIQDFQKLTAADDKTAQVEDFLQFLYGAMAQDVIWQNASEEQLQDAQLAIERSVMNRIFKLAFYPNQDGDILRDQVLHEHIQRLSKVVTANHRALQIPEVYLREAPWPSAQSEIRTISAYKTPRDKVQCILRMCSTIMNLLSLANEDSVPGADDFVPVLVFVLIKANPPCLLSTVQYISSFYASCLSGEESYWWMQFTAAVEFIKTIDDRK [GAPVD1] | 49.5 | 49.8 | 1.88 | 3.33 | -0.136 | -0.131
